Laboratory results published in the supplement of paper PMC11246515.
± gives the standard deviation of the averaged measurements.

Assay: total protein half-life in vivo (active degradation + dilution); higher = more stable protein
[1] = E. coli NCM3722 delta-clpP delta-lon delta-hslV, growth: N-lim chemostat, doubling time 6 h
[2] = E. coli NCM3722 delta-clpP, growth: N-lim chemostat, doubling time 6 h
[3] = E. coli NCM3722 delta-hslV, growth: N-lim chemostat, doubling time 6 h
[4] = E. coli NCM3722 delta-lon, growth: N-lim chemostat, doubling time 6 h
[5] = E. coli NCM3722 delta-smpB, growth: N-lim chemostat, doubling time 6 h
[6] = wild type E. coli NCM3722, growth: C-lim chemostat, doubling time 3 h
[7] = wild type E. coli NCM3722, growth: C-lim chemostat, doubling time 6 h
[8] = wild type E. coli NCM3722, growth: C-lim chemostat, doubling time 12 h
[9] = wild type E. coli NCM3722, growth: N-lim chemostat, doubling time 6 h
[10] = wild type E. coli NCM3722, growth: N-lim chemostat, doubling time 12 h
[11] = wild type E. coli NCM3722, growth: P-lim chemostat, doubling time 6 h
[12] = wild type E. coli NCM3722, growth: P-lim chemostat, doubling time 12 h

| Sequence | total protein half-life in vivo [1] [h] | total protein half-life in vivo [2] [h] | total protein half-life in vivo [3] [h] | total protein half-life in vivo [4] [h] | total protein half-life in vivo [5] [h] | total protein half-life in vivo [6] [h] | total protein half-life in vivo [7] [h] | total protein half-life in vivo [8] [h] | total protein half-life in vivo [9] [h] | total protein half-life in vivo [10] [h] | total protein half-life in vivo [11] [h] | total protein half-life in vivo [12] [h] |
| --- | --- | --- | --- | --- | --- | --- | --- | --- | --- | --- | --- | --- |
| MKLKTTLFGNVYQFKDVKEVLAKANELRSGDVLAGVAAASSQERVAAKQVLSEMTVADIRNNPVIAYEDDCVTRLIQDDVNETAYNQIKNWSISELREYVLSDETSVDDIAFTRKGLTSEVVAAVAKICSNADLIYGAKKMPVIKKANTTIGIPGTFSARLQPNDTRDDVQSIAAQIYEGLSFGVGDAVIGVNPVTDDVENLSRVLDTIYGVIDKFNIPTQGCVLAHVTTQIEAIRRGAPGGLIFQSICGSEKGLKEFGVELAMLDEARAVGAEFNRIAGENCLYFETGQGSALSAGANFGADQVTMEARNYGLARHYDPFIVNTVVGFIGPEYLYNDRQIIRAGLEDHFMGKLSGISMGCDCCYTNHADADQNLNENLMILLATAGCNYIMGMPLGDDIMLNYQTTAFHDTATVRQLLNLRPSPEFERWLESMGIMANGRLTKRAGDPSLFF [P0AEJ6] | 5.95 ± 1.3 | 5.45 ± 0.56 | 4.07 ± 0.41 | 4.68 ± 0.12 | 3.91 ± 0.24 | 3.36 ± 0.3 | 6.26 ± 0.2 | 11.1 ± 0.83 | 3.82 ± 0.15 | 6.18 ± 0.099 | 6.37 ± 0.16 | 12 ± 0.84 |
| MKLNDSNLFRQQALINGEWLDANNGEAIDVTNPANGDKLGSVPKMGADETRAAIDAANRALPAWRALTAKERATILRNWFNLMMEHQDDLARLMTLEQGKPLAEAKGEISYAASFIEWFAEEGKRIYGDTIPGHQADKRLIVIKQPIGVTAAITPWNFPAAMITRKAGPALAAGCTMVLKPASQTPFSALALAELAIRAGVPAGVFNVVTGSAGAVGNELTSNPLVRKLSFTGSTEIGRQLMEQCAKDIKKVSLELGGNAPFIVFDDADLDKAVEGALASKFRNAGQTCVCANRLYVQDGVYDRFAEKLQQAVSKLHIGDGLDNGVTIGPLIDEKAVAKVEEHIADALEKGARVVCGGKAHERGGNFFQPTILVDVPANAKVSKEETFGPLAPLFRFKDEADVIAQANDTEFGLAAYFYARDLSRVFRVGEALEYGIVGINTGIISNEVAPFGGIKASGLGREGSKYGIEDYLEIKYMCIGL | 4.773 ± 0.035 | 4.35 ± 0.32 | 3.93 ± 0.08 | 4.251 ± 0.0095 | 3.87 ± 0.14 | 2.86 ± 0.26 | 5.44 ± 0.58 | 9.938 ± 0.016 | 3.96 ± 0.29 | 5.95 ± 0.61 | 5.72 ± 0.12 | 11 ± 0.44 |
| MKLNIFTKSMIGMGLVCSALPALAMEAWNNQQGGNKYQVIFDGKIYENAWWVSSTNCPGKAKANDATNPWRLKRTATAAEISQFGNTLSCEKSGSSSSSNSNTPASNTPANGGSATPAQGTVPSNSSVVAWNKQQGGQTWYVVFNGAVYKNAWWVASSNCPGDAKSNDASNPWRYVRAATATEISETSNPQSCTSAPQPSPDVKPAPDVKPAPDVQPAPADKSNDNYAVVAWKGQEGSSTWYVIYNGGIYKNAWWVGAANCPGDAKENDASNPWRYVRAATATEISQYGNPGSCSVKPDNNGGAVTPVDPTPETPVTPTPDNSEPSTPADSVNDYSLQAWSGQEGSEIYHVIFNGNVYKNAWWVGSKDCPRGTSAENSNNPWRLERTATAAELSQYGNPTTCEIDNGGVIVADGFQASKAYSADSIVDYNDAHYKTSVDQDAWGFVPGGDNPWKKYEPAKAWSASTVYVKGDRVVVDGQAYEALFWTQSDNPALVANQNATGSNSRPWKPLGKAQSYSNEELNNAPQFNPETLYASDTLIRFNGVNYISQSKVQKVSPSDSNPWRVFVDWTGTKERVGTPKKAWPKHVYAPYVDFTLNTIPDLAALAKNHNVNHFTLAFVVSKDANTCLPTWGTAYGMQNYAQYSKIKALREAGGDVMLSIGGANNAPLAASCKNVDDLMQHYYDIVDNLNLKVLDFDIEGTWVADQASIERRNLAVKKVQDKWKSEGKDIAIWYTLPILPTGLTPEGMNVLSDAKAKGVELAGVNVMTMDYGNAICQSANTEGQNIHGKCATSAIANLHSQLKGLHPNKSDAEIDAMMGTTPMVGVNDVQGEVFYLSDARLVMQDAQKRNLGMVGIWSIARDLPGGTNLSPEFHGLTKEQAPKYAFSEIFAPFTKQ | 4.89 ± 0.41 | 7.07 ± 0.34 | 5.22 ± 1.2 |  | 5.97 ± 0.68 |  | 5.72 | 10.9 ± 1.9 | 5.87 ± 0.36 | 12.9 ± 0.98 | 6.31 ± 0.59 |  |
| MKLPVREFDAVVIGAGGAGMRAALQISQSGQTCALLSKVFPTRSHTVSAQGGITVALGNTHEDNWEWHMYDTVKGSDYIGDQDAIEYMCKTGPEAILELEHMGLPFSRLDDGRIYQRPFGGQSKNFGGEQAARTAAAADRTGHALLHTLYQQNLKNHTTIFSEWYALDLVKNQDGAVVGCTALCIETGEVVYFKARATVLATGGAGRIYQSTTNAHINTGDGVGMAIRAGVPVQDMEMWQFHPTGIAGAGVLVTEGCRGEGGYLLNKHGERFMERYAPNAKDLAGRDVVARSIMIEIREGRGCDGPWGPHAKLKLDHLGKEVLESRLPGILELSRTFAHVDPVKEPIPVIPTCHYMMGGIPTKVTGQALTVNEKGEDVVVPGLFAVGEIACVSVHGANRLGGNSLLDLVVFGRAAGLHLQESIAEQGALRDASESDVEASLDRLNRWNNNRNGEDPVAIRKALQECMQHNFSVFREGDAMAKGLEQLKVIRERLKNARLDDTSSEFNTQRVECLELDNLMETAYATAVSANFRTESRGAHSRFDFPDRDDENWLCHSLYLPESESMTRRSVNMEPKLRPAFPPKIRTY [P0AC41] | 6.32 ± 0.098 | 6.04 ± 0.75 | 5.73 ± 0.33 | 5.17 ± 0.66 | 5.69 ± 0.26 | 3.17 ± 0.15 | 6.49 ± 0.39 | 11.6 ± 1.4 | 5.81 ± 0.35 | 11 ± 0.49 | 6.2 ± 0.12 | 13.3 ± 0.3 |
| MKLQKQLLEAVEHKQLRPLDVQFALTVAGDEHPAVTLAAALLSHDAGEGHVCLPLSRLENNEASHPLLATCVSEIGELQNWEECLLASQAVSRGDEPTPMILCGDRLYLNRMWCNERTVARFFNEVNHAIEVDEALLAQTLDKLFPVSDEINWQKVAAAVALTRRISVISGGPGTGKTTTVAKLLAALIQMADGERCRIRLAAPTGKAAARLTESLGKALRQLPLTDEQKKRIPEDASTLHRLLGAQPGSQRLRHHAGNPLHLDVLVVDEASMIDLPMMSRLIDALPDHARVIFLGDRDQLASVEAGAVLGDICAYANAGFTAERARQLSRLTGTHVPAGTGTEAASLRDSLCLLQKSYRFGSDSGIGQLAAAINRGDKTAVKTVFQQDFTDIEKRLLQSGEDYIAMLEEALAGYGRYLDLLQARAEPDLIIQAFNEYQLLCALREGPFGVAGLNERIEQFMQQKRKIHRHPHSRWYEGRPVMIARNDSALGLFNGDIGIALDRGQGTRVWFAMPDGNIKSVQPSRLPEHETTWAMTVHKSQGSEFDHAALILPSQRTPVVTRELVYTAVTRARRRLSLYADERILSAAIATRTERRSGLAALFSSRE | 4.81 ± 0.19 | 4.01 ± 1.1 | 2.9 ± 0.19 | 3.33 ± 0.44 | 2.739 ± 0.015 | 2.89 ± 0.43 | 4.39 ± 0.1 | 6.98 ± 0.28 | 2.97 ± 0.079 | 4.37 ± 0.29 | 4.36 ± 0.065 | 7.54 ± 0.6 |
| MKLQLVAVGTKMPDWVQTGFTEYLRRFPKDMPFELIEIPAGKRGKNADIKRILDKEGEQMLAAAGKNRIVTLDIPGKPWDTPQLAAELERWKLDGRDVSLLIGGPEGLSPACKAAAEQSWSLSALTLPHPLVRVLVAESLYRAWSITTNHPYHRE [P0A8I8] | 5.401 ± 0.053 | 3.23 ± 0.13 | 5.99 ± 1.1 | 6.18 ± 1.4 | 3.18 ± 0.43 | 2.78 ± 0.13 | 4.96 ± 0.5 | 9.34 ± 2 | 4.87 ± 0.21 | 8.26 ± 0.7 | 4.57 ± 0.29 | 9.29 ± 0.3 |
